From article PMC6128205

Biological target: T1, SlyA (Shigella flexneri serotype 2a 2457T) (UniProt P0A8W4)
T1 sequence: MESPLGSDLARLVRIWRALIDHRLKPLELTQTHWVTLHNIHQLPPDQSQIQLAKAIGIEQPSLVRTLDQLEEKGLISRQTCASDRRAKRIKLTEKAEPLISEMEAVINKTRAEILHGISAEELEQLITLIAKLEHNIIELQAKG
Experiment: EMSA
Details: 10 mM Tris-HCl pH 7.5, 100 mM KCl, 1 mM EDTA, 0.1 mM DTT, 5% glycerol, 10 ug/mL BSA, room temperature 30 min

With “CAGTCTGAACGGGGTGTACACGCCGTATATGCAGGATAAACAATAATTAATTTGATCGCCCGAACAGGAATGTTTGGGCGATTTTTATTACGATAATAAAGTCTGTTTTTAATATTATCATGTTAAATGTTTATATTATAAAAAGTCGTTTTTCTGCTTAGGATTTTGTTATTTAAATTAAGCCTGTAATGCCTTGCTTCCATTGCGGATAAATCCTACTTTTTTATTGCCTTCAAATAAATTTAAGGAGTTCGAAATGGACCAGAAGCTGTTAACGGATTTCCGCTCAG (double strand) [PgadA]” the binding was “binds”.
